# In the supplement of paper PMC10567573:
# B1: PDS5B (parent)
# chain: ITYPPGVKEISDKISKEEMVRRLK
# B2: ACSBG2 (parent)
# chain: TPMTIPEFFRESVNRFGTYPALAS
# Variants of: B1
# Test: protein stability index of a GFP-peptide fusion (GPS, HEK-293T) (PSI 1-6); higher = more stable
# Conditions: c terminus: a fixed tail appended
# 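Further: lentivirally expressed fusions sorted by FACS into six bins by GFP to DsRed ratio, PSI derived from sequencing read proportions per bin multiplied by bin number.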
row,Variant,protein stability index
1,S15I,2.73
2,P5V,3.16
3,P5I,4.29
4,P5E,4.11
5,P5G,3.67
6,V7Q,4.16
7,K24C,3.13
8,E9G,4.19
9,S11V,2.8
10,L23R,4.59
11,L23H,4.08
12,M19V,4.65
13,I1M,4.9
14,I1E,4.74
15,T2H,3.79
16,R21S,4.45
17,I14R,4.38
18,I14S,4.86
19,G6H,4.18
20,P4T,3.15
21,P4H,3.91

# Variants of: B2
# Test: as above
# Conditions: c terminus: a fixed tail appended
row,Variant,protein stability index
1,V13I,2.56
2,V13E,2.78
3,V13T,2.98
4,V13A,2.42
5,V13D,2.79
6,V13K,2.31
7,Y19K,2.8
8,Y19V,2.71
9,Y19G,2.73
10,Y19C,2.19
11,Y19N,2.84
12,Y19Q,2.91
13,Y19D,3.44
14,N14A,2.51
15,N14I,1.83
16,A23T,2.33
17,A23Q,2.69
18,A23F,1.67
19,A23S,2.56
20,A23R,2.56
21,A23K,2.71
22,A23N,2.5
23,A23H,2.43
24,A21T,2.02
25,A21C,1.88

row,Variant,protein stability index
1,A21P,2.32
2,A21K,2.87
3,A21L,1.77
4,A21I,2.23
5,A21S,2.31
6,A21F,1.65
7,A21R,2.16
8,G17C,1.43
9,G17K,2.27
10,G17T,1.91
11,G17V,2.1
12,G17P,2.22
13,G17Y,2.04
14,G17A,1.78
15,G17N,2.34
16,G17Q,1.86
17,P6Y,1.99
18,P6M,3.03
19,P6D,1.76
20,P6T,1.88
21,P6N,2.05
22,P6I,3
23,P6L,3.27
24,P6K,2.15
25,T1M,1.85

row,Variant,protein stability index
1,T1C,1.73
2,T1V,1.93
3,T1A,2.28
4,T1G,2.13
5,T1K,3.04
6,T1D,2.94
7,R10Y,1.86
8,R10F,2.04
9,R10T,2.37
10,R10G,2.37
11,R10Q,2.62
12,R10H,2.15
13,R10D,2.75
14,T18K,2.77
15,T18W,1.49
16,T18L,2.31
17,I5G,2.84
18,I5R,2.97
19,I5D,2.7
20,I5F,2.23
21,I5N,2.39
22,I5K,2.19
23,I5P,2.5
24,M3E,2.44
25,M3C,2.34

row,Variant,protein stability index
1,M3I,2.5
2,M3P,2.02
3,M3W,1.69
4,M3Y,2.49
5,M3T,2.55
6,M3H,2.37
7,M3V,2.11
8,S12R,2.25
9,S12Q,2.65
10,S12V,2.19
11,S12H,2.27
12,F16A,3.51
13,F16H,3.03
14,F16L,2.11
15,F16C,2.54
16,F16N,3.41
17,F16P,2.92
18,F16I,2.36
19,F16D,3.62
20,F16S,2.71
21,E11V,1.99
22,E11T,2.17
23,E11D,2.58
24,E11A,1.95
25,S24T,2.07

row,Variant,protein stability index
1,S24C,2.03
2,S24V,1.37
3,S24A,2.06
4,T4P,2.73
5,T4L,1.86
6,T4N,2.4
7,T4Y,2.62
8,T4E,2.52
9,T4F,1.65
10,L22Y,1.93
11,L22V,2.02
12,L22D,3.19
13,L22M,1.88
14,L22A,2.51
15,L22N,3.45
16,L22H,2.61
17,P20C,1.97
18,P20D,2.67
19,P20E,2.4
20,P20T,1.48
21,P20Y,1.56
22,P20V,2.41
23,P20A,1.89
24,F8N,3.19
25,F8C,2.7

row,Variant,protein stability index
1,F8V,2.14
2,F8Q,2.65
3,F8Y,2.4
4,E7M,2.63
5,E7K,2.25
6,F9A,2.42
7,F9K,2.67
8,F9E,3.41
9,F9R,2.88
10,F9Q,2.37
11,F9S,2.71
12,F9Y,2.71
13,F9C,2.17
14,R15S,2.64
15,R15L,2.38
16,R15V,2.41
17,R15N,2.5
18,P2W,1.4
19,P2D,2.65
20,P2N,2.2
21,P2F,1.83
